The supplement of paper PMC7125110
± gives the standard error. For part of these data: Fewer inactive variants are shown than the library holds.

B1: glmS ribozyme (parent)
chain: AUAAAAGCGCCAGAACUACAGAAAUGUAGUUGACGAGGAGGAGGUUUAUCGAAUUUUCGGCGGAUGCCUCCAAA

Assays:
Settings in all cases: with glucosamine-6-phosphate
glucosamine-6-phosphate [1] = variants of: B1; assay: kcat; higher = faster cleavage; RNA array
In short: (§1)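 Barcoded ribozyme variants, transcribed in situ by E. coli RNA polymerase on sequenced MiSeq chips, were followed via a hybridised Cy3 probe at 37 °C. Glucosamine-6-phosphate ranged from 40 μM to 10 mM in HEPES/KCl/Mg(OAc)2 buffer. kobs came from decay fits to per-tile medians, and kcat and KM from weighted Michaelis–Menten fits.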

glucosamine-6-phosphate [2] = variants of: B1; assay: self-cleavage kobs at 40 uM GlcN6P; higher = faster cleavage; RNA array
In short: as §1

glucosamine-6-phosphate [3] = variants of: B1; assay: self-cleavage kobs at 160 uM GlcN6P; higher = faster cleavage; RNA array
In short: as §1

glucosamine-6-phosphate [4] = variants of: B1; assay: self-cleavage kobs at 640 uM GlcN6P; higher = faster cleavage; RNA array
In short: as §1

glucosamine-6-phosphate [5] = variants of: B1; assay: self-cleavage kobs at 2500 uM GlcN6P; higher = faster cleavage; RNA array
In short: as §1

glucosamine-6-phosphate [6] = variants of: B1; assay: self-cleavage kobs at 10000 uM GlcN6P; higher = faster cleavage; RNA array
In short: as §1

glucosamine-6-phosphate [7] = variants of: B1; assay: KM; higher = weaker cofactor use; RNA array
In short: as §1

| Variant | kcat (glucosamine-6-phosphate [1]) | self-cleavage kobs at 40 uM GlcN6P (glucosamine-6-phosphate [2]) | self-cleavage kobs at 160 uM GlcN6P (glucosamine-6-phosphate [3]) | self-cleavage kobs at 640 uM GlcN6P (glucosamine-6-phosphate [4]) | self-cleavage kobs at 2500 uM GlcN6P (glucosamine-6-phosphate [5]) | self-cleavage kobs at 10000 uM GlcN6P (glucosamine-6-phosphate [6]) | KM (glucosamine-6-phosphate [7]) |
| --- | --- | --- | --- | --- | --- | --- | --- |
| AUAAAAGCGCCAGAACUACAGAAAUGUAGUUGACGAGGAGGAGGUGUAUCGAGUUUUCGGCGGAUGCCUCCAAA | 0.00499 ± 0.0025 s⁻¹ | 0.000271 ± 7.8e-05 s⁻¹ | 0.000482 ± 0.00011 s⁻¹ | 0.00165 ± 0.00049 s⁻¹ | 0.00267 ± 0.00089 s⁻¹ | 0.00811 ± 0.0028 s⁻¹ |  |
| AUAAAAGCGCCAGAACUACAGAAAUGUAGUUGACGAGGAGGAGGUCUAUCGAAUUGUCGGCGGAUGCCUCCAAA | 0.00195 ± 0.00027 s⁻¹ | 5.6e-05 ± 9.5e-06 s⁻¹ | 0.000159 ± 3e-05 s⁻¹ | 0.000736 ± 8.1e-05 s⁻¹ | 0.00128 ± 0.00017 s⁻¹ | 0.00164 ± 0.00018 s⁻¹ | 1390 ± 310 µM |
| AUAAAAGCGCCAGAACUACAGAAAUGUAGUUGACGAGGAGGAGGUGUAUCGAAUUUUCGGCGGAUGCCUCCAAA | 0.0111 ± 0.0013 s⁻¹ | 0.000228 ± 4.5e-06 s⁻¹ | 0.000671 ± 2.7e-05 s⁻¹ | 0.00241 ± 6.1e-05 s⁻¹ | 0.00589 ± 0.00015 s⁻¹ | 0.00965 ± 0.00026 s⁻¹ | 2110 ± 340 µM |
| AUAAAAGCGCCAGAACUACAGAAAUGUAGUUGACGAGGAGGAGGUCUAUCGAAUAUUCGGCGGAUGCCUCCAAA | 0.00288 ± 0.00026 s⁻¹ | 9.7e-05 ± 1.5e-05 s⁻¹ |  | 0.0011 ± 0.0002 s⁻¹ | 0.00248 ± 0.00076 s⁻¹ | 0.00247 ± 0.00041 s⁻¹ | 1110 ± 150 µM |
| AUAAAAGCGCCAGAACUACAGAAAUGUAGUUGACGAGGAGGAGGUGUAUCGAAUUUUCGGCGGAUACCUCCAAA | 0.00746 ± 0.0016 s⁻¹ | 0.000106 ± 1.6e-05 s⁻¹ |  | 0.00155 ± 0.00019 s⁻¹ | 0.00502 ± 0.0011 s⁻¹ | 0.00541 ± 0.001 s⁻¹ | 2580 ± 720 µM |
| AUAAAAGCGCCAGAACUACAGAAAUGUAGUUGACGAGGAGGAGGUGUAGCGAAUUUUCGGCGGAUGCCUCCAAA | 9.12e-05 ± 1.4e-05 s⁻¹ | < 1e-05 s⁻¹ |  |  | 8.04e-05 ± 1.8e-05 s⁻¹ | 7.66e-05 ± 1.7e-05 s⁻¹ |  |
| AUAAAAGCGCCAGAACUACAGAAAUGUAGUUGACGAGGAGGAGGUGUAUCGAAGUUUCGGCGGAUGCCUCCAAA | 0.0123 ± 0.0017 s⁻¹ | 0.000155 ± 2.6e-05 s⁻¹ | 0.000596 ± 0.00017 s⁻¹ | 0.00224 ± 0.0004 s⁻¹ | 0.00479 ± 0.0013 s⁻¹ | 0.0102 ± 0.003 s⁻¹ | 3110 ± 510 µM |
| AUAAAAGCGCCAGAACUACAGAAAUGUAGUUGACGAGGAGGAGGUCUAUCGAAUUUUCGGCGGAGGCCUCCAAA | 0.000138 ± 2.3e-05 s⁻¹ |  |  | 2.77e-05 ± 1.3e-05 s⁻¹ | 0.000117 ± 2.4e-05 s⁻¹ | 0.000113 ± 1.5e-05 s⁻¹ |  |
| AUAAAAGCGCCAGAACUACAGAAAUGUAGUUGACGAGGAGGAGGUCUAUCGAAUUUUCGGCGGAAGCCUCCAAA | 0.00399 ± 0.0019 s⁻¹ | 7.93e-05 ± 2.3e-05 s⁻¹ |  | 0.000444 ± 0.00012 s⁻¹ | 0.00143 ± 0.00037 s⁻¹ | 0.00295 ± 0.00065 s⁻¹ |  |
| AUAAAAGCGCCAGAACUACAGAAAUGUAGUUGACGAGGAGGAGGUCUAUCGAAUUUUCGGCGGAUGCCCCCAAA | 0.00112 ± 0.0002 s⁻¹ | 5.23e-05 ± 2.2e-05 s⁻¹ |  | 0.000644 ± 0.00013 s⁻¹ | 0.00117 ± 0.00032 s⁻¹ | 0.000936 ± 0.00019 s⁻¹ | 644 ± 250 µM |
| AUAAAAGCGCCAGAACUACAGAAAUGUAGUUGACGAGGAGGAGGUCUAUCGAAUUUCCGGCGGAUGCCUCCAAA | 9.95e-05 ± 2e-05 s⁻¹ | < 1e-05 s⁻¹ |  |  | 4.88e-05 ± 2e-05 s⁻¹ | 7.09e-05 ± 1.8e-05 s⁻¹ |  |
| AUAAAAGCGCCAGAACUACAGAAAUGUAGUUGACGAGGAGGAGGUGUAUCGAAUUUUCGGCGGAUGCCUACAAA | 0.000224 ± 6.8e-05 s⁻¹ | 4.78e-05 ± 1.2e-05 s⁻¹ | 4.54e-05 ± 1.6e-05 s⁻¹ | 0.000153 ± 2.5e-05 s⁻¹ | 0.000395 ± 7.2e-05 s⁻¹ | 0.000188 ± 3.1e-05 s⁻¹ |  |
| AUAAAAGCGCCAGAACUACAGAAAUGUAGUUGACGAGGAGGAGGUGCAUCGAAUUUUCGGCGGAUGCCUCCAAA | 0.00353 ± 0.0011 s⁻¹ | 0.000104 ± 2.7e-05 s⁻¹ | 0.000744 ± 0.00015 s⁻¹ | 0.00158 ± 0.00026 s⁻¹ | 0.00225 ± 0.00047 s⁻¹ | 0.00332 ± 0.0012 s⁻¹ | 981 ± 440 µM |
